The values below come from article PMC8651678 (Nature Communications, 2021).

As usually defined, the EC50 is the concentration giving half of the maximal effect. One may read the Kd as the constant that tells how readily two partners part at equilibrium.

Test [1] deals with T1, human eIF2B(αβδγε)2 decamer (no capture tag) (human, UniProt Q14232;P49770;Q9UI10;Q9NR50;Q13144).
T1 construct: also called decameric eIF2B; eIF2B(αβγδε)2; copies: 2 + 2 + 2 + 2 + 2
In words: fluorescence polarisation. The note with it: both partners purified. (In general: Fluorescence polarisation rises when a labelled molecule tumbles more slowly, as on binding a larger partner.)

Test [2] concerns the target T2, human eIF2B(αβδγε)2 decamer, eIF2Bβ Avi-tagged and biotinylated (human, UniProt Q14232;P49770;Q9UI10;Q9NR50;Q13144, biotin on the Avi tag).
T2 construct: also called decameric eIF2B; copies: 2 + 2 + 2 + 2 + 2
In words: SPR. The note with it: both partners purified.

B1: Sandfly Fever Sicilian virus (SFSV) NSs protein with a C-terminal 6xHIS tag (natural protein)
chain: MINNNMMNSQYMFDYPAINIDVRCHRLLSSVSYVAYNKFHTHDVSTYEHCEIPLEKLRLGFGRRNSLADFYSLGELPASWGPACYFSSVKPMMYTFQGMASDLSRFDLTSFSRKGLPNVLKALSWPLGIPDCEIFSICSDRFVRGLQTRDQLMSYILRMGDSHSLDECIVQAHKKILQEARRLGLSDEHYNGYDLFREIGSLVCLRLINAEPFDTASSGEALDVRTVIRSYRASDPSTGLTEYGNSLWTPIHSHVDENDESSSDSDF
notes: not shown: 6xHIS, C-terminal, kept
In turn, B1 displayed a concentration giving a half-maximal response (EC50) in test [1] of 72 nM. Moreover, binding in test [2] was characterised by a dissociation constant (Kd) of 30 nM.
